Read-outs that look alike come from different tables or passages of the source.

Broadly, the EC50 is the concentration giving half of the maximal effect. Higher therefore signals a less potent agent.

Assay [1] deals with T1, interleukin-1 receptor accessory protein (IL1RAP) on AML target cells (human, UniProt Q9NPH3 21-570).
T1 sequence (looked up): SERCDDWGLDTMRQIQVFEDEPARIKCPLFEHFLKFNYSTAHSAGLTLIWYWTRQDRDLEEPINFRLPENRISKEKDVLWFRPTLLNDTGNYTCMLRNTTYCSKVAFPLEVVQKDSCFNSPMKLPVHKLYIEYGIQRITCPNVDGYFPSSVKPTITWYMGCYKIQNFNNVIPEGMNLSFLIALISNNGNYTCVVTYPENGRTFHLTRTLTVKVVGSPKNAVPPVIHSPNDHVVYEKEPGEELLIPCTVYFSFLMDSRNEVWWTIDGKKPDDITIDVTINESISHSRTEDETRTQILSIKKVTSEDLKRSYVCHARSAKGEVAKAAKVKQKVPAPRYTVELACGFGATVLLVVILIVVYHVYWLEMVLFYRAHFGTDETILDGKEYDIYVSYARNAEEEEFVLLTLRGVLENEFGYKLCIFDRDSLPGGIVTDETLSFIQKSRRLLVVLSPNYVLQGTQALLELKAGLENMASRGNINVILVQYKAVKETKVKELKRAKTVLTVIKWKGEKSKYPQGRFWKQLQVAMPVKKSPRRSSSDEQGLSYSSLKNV
Nature of the assay: cell-based or functional assay.

Assay [2] concerns the target T2, interleukin-1 receptor accessory protein (IL1RAP), antigen of the ELISA and phage selection (UniProt Q9NPH3 21-367, limits assumed).
T2 sequence (looked up): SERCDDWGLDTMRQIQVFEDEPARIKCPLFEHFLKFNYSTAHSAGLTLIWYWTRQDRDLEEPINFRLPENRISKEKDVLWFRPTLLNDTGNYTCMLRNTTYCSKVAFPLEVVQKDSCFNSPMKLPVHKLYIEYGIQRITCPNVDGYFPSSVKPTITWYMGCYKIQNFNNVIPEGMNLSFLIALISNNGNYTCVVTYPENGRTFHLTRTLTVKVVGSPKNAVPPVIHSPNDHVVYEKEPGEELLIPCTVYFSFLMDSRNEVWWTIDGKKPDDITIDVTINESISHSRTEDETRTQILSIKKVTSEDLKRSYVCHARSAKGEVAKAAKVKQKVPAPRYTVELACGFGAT
Nature of the assay: ELISA, scFv-Fc on IL1RAP.

The target of assay [3] is T2, interleukin-1 receptor accessory …. The assay can be described thus: ELISA, scFv-Fc on IL1RAP. This is another data set of the same source. (In general: An ELISA detects its analyte on a solid surface through an enzyme-linked reagent.)

B1: anti-IL1RAP antibody clone 2E12 (Fc fusion)
VH: PGAAAGVGGGLVQPGGSLRLSCEASGFTFSRYWMHWVRQAPGKGLVWVSRIHTDGSSISYADSVKGRFTISRDNAKNTLYLQMNSLRAEDTAVYYCARDIGGGYSYGSVDYWGQGTLVTVSS
VL: QPVLTQSPSVSVAPGKTTRITCGGDNIGSKSVHWFQQKPGQAPVLVVFGGGDRPSGIPERFSGSNSGNTATLIISGVEGGDEADYYCQVWDGSTDHYIFGAGTMVTVL
notes: Tested as scFv-Fc
In the case of B1, in assay [1], the “cell lysis %-1” value was 27.2%, the “cell lysis %-2” value came out at 28.7%, the “cell lysis %-3” value turned out to be 23.7% and the cell lysis %-average was 26.5%. This molecule gave an EC50 in assay [2] of 85.4 µg/mL. For the same molecule, a half-maximal response in assay [3] (EC50) required 854 nM.

For the origin of these results see patent US20220306750A1 (CITY OF HOPE, published 2022).
